From article PMC8826744 (Microbiology Spectrum, 2022) come the findings set out here.

This test has as its target T1, IgG4-Fc tagged rFOLR1 (Homo sapiens (assumed), UniProt P15328).
T1 construct: also called recombinant IgG4-Fc FOLR1; folate receptor alpha-1; source: CHO-S, transfected, purified (protein A)
Briefly: ELISA; IgG4-Fc tagged rFOLR1 (2 ug/mL) coated on 96-well plates overnight; antibodies 50 nM to 0.048 nM, 1 h at 37 C; detected with HRP anti-human IgG1. To be noted: both partners purified. For orientation: In an ELISA, binding on a coated surface is turned into a signal by an enzyme label.

B1: farletuzumab-IgG1 (antibody, V domains shown)
VH: EVQLVESGGGVVQPGRSLRLSCSASGFTFSGYGLSWVRQAPGKGLEWVAMISSGGSYTYYADSVKGRFAISRDNAKNTLFLQMDSLRPEDTGVYFCARHGDDPAWFAYWGQGTPVTVSS
VL: DIQLTQSPSSLSASVGDRVTITCSVSSSISSNNLHWYQQKPGKAPKPWIYGTSNLASGVPSRFSGSGSGTDYTFTISSLQPEDIATYYCQQWSSYPYMYTFGQGTKVEIK
notes: IgG1; source: CHO-S, transfected, purified (protein A)
On to B1, for which the binding result is “binds”.

B2: farletuzumab-FuG1 (antibody, V domains shown)
VH: EVQLVESGGGVVQPGRSLRLSCSASGFTFSGYGLSWVRQAPGKGLEWVAMISSGGSYTYYADSVKGRFAISRDNAKNTLFLQMDSLRPEDTGVYFCARHGDDPAWFAYWGQGTPVTVSS
VL: DIQLTQSPSSLSASVGDRVTITCSVSSSISSNNLHWYQQKPGKAPKPWIYGTSNLASGVPSRFSGSGSGTDYTFTISSLQPEDIATYYCQQWSSYPYMYTFGQGTKVEIK
notes: also called farletuzumab-FuGi
Consider B2, for which the binding result is on record as “binds”.
